From paper PMC6167752 (ACS infectious diseases, 2018) come the findings set out here.

The Km is the substrate concentration at which the rate is half of its maximum. As usually defined, the kcat is the number of substrate molecules converted per active site and unit of time at saturation. A word on the kcat/Km: it is the second-order rate constant that governs catalysis at low substrate concentration.

Series [1] has as its target AAC(2′)-Ia (Providencia stuartii, UniProt Q52424). Description: X-ray crystal structure. Type of series: binding.
Series [2] has as its system CN[C@@H]1[C@@H](O)[C@@H](O[C@@H]2[C@@H](O)[C@H](O[C@H]3OC(CNCCO)=CC[C@H]3N)[C@@H](N)C[C@H]2NC(=O)[C@@H](O)CCN)OC[C@]1(C)O. Kind of series: purified protein. The format is biochemical, Providencia stuartii. Conditions: 150 μM AcCoA, 25 mM MES pH 6, 25 °C.

Chain of AAC(2′)-Ia (Q52424 whole entry): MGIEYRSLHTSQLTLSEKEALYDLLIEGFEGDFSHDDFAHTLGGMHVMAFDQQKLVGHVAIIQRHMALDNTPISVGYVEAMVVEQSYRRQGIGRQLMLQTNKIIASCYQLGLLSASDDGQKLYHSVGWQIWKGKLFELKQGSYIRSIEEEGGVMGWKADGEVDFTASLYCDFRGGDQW

As for `CC(=O)SCCNC(=O)CCNC(=O)[C@H](O)C(C)(C)COP(=O)(O)OP(=O)(O)OC[C@H]1O[C@@H](n2cnc3c(N)ncnc32)[C@H](O)[C@@H]1OP(=O)(O)O` [acetyl-coenzyme A], the X-ray crystal structure result in series [1] (one molecule modelled) is “one acetyl-coenzyme A, and three coenzyme A molecules was evident in difference density maps”.
Turning to `CC(C)(COP(=O)(O)OP(=O)(O)OC[C@H]1O[C@@H](n2cnc3c(N)ncnc32)[C@H](O)[C@@H]1OP(=O)(O)O)[C@@H](O)C(=O)NCCC(=O)NCCS` [coenzyme A], the X-ray crystal structure entry in series [1] (active site) is recorded as “one dimer contained a coenzyme A bound to each active site”.
AAC(2′)-Ia (Providencia stuartii): in series [2], the Km came to 370 ± 90 µM, the turnover number (kcat) was 0.9 ± 0.1 s⁻¹ and the kcat/Km was found to be 2400 M⁻¹ s⁻¹.
